Results as given in US20250304662A1 (published 2025).
Substitutions are numbered along the chain they refer to.

B1: Ec A2 (antibody, V domains shown)
VH: EVQLQQSGAEQVRPGASVKMSCKASGYTFTTYNMNWMKQTPGQGLEWIGVIYPGNGDISYNQKFKGKATLTVDKSSSTAYMQLSSLTSEDSAVYFCAREGDYGPWFAYWGQGTLVTVSA
VL: QIVLTQSPAIMSASPGEKVTMTCRASSSVSSSYLHWYQQKSGASPKFWIYSTSKLASGVPARFSGSGSGTSYSLTISSVEAEDAATYYCQHYSRYPLTFGGGTKLEIKR
B2: Kp 2D07 (antibody, V domains shown)
VH: EVQLQQSGPELVRPGASVKISCKASGYTFTDYYIHWLKQRPGQGLEWIGLIFPGSGSIYCNEKFKGKATLTVDKSSTTAYMLLSSLTSEDSAVYFCARWETTAWYFDVWGTGTTVTVSS
VL: QIVLTQSPAILSASPGEKVTMTCRASLSVSYMHWYQQKPGSSPKPWIYATSNLASGVPARFSGSGSGTSYSLTVSRVEAEDAATYYCQQWRSYPYTFGGGTKLEIKR
B3: 2G04 (antibody, V domains shown)
VH: EVQLQQPGPELVKPGSSLKISCKASGYTFTDYFINWVKQRPGQGLDWIGWIFPGSGSTYYNDKFKGKATLTVDKSSSTAYMLLSSLTSEASAVYFCARWDSDSTYWYFDVWGTGTTVTVSS
VL: QIVLTQSPALMAASPGEKVTITCSVNSSISSSTLHWYQQKSQTSPKPWIYGTSNLASGVPIRFSGSGSGTSYSLTISSMEAEDAATYYCQQWSTYPYTFGGGTKLEIKR
B4: Ec3 B7 (antibody, V domains shown)
VH: EVQLQQPGAELVRPGASVKMSCKASGYTFTIYNLHWVKQTPRQGLEWIGTIYPGDGDTSYNQKFKGKATLTVDKSSSTAYMQLSNLTSEDSAVYFCAREGDYGPWFAYWGQGTLVTVSA
VL: B1 VL with F47L, T52S, K54N, S77N, S93G, R94S
B5: Kp 1D09 (antibody, V domains shown)
VH: EVQLQQPGAELVKPGASVKLSCKASGYTFTNYWIHWMKQRPGRGLEWIGRIEPNSGDTKYNEKIKSRATLTVDKPSSTAYMQLSSLTSEDSAVYYCARSGYDYPEAWGQGTTLTVSS
VL: DIVLTQSPASLAVSPGQRATISCRASEGVEYYGTTLMQWYQQKPGQPPKLLIYAASNVESGVPARFSGSGSGTDFSLNIHPVEEDDIAMYFCQQSRKVSWTFGGGTKLEIKR
B6: Kp2 2C07 (antibody, V domains shown)
VH: EVKLVESGEGLVKPGGSLKLSCAASGFTFSSYAMSWVRQTPEKRLDWVAYISSGGDHIYYADTVKGRFTISRDNARNTLYLQMSSLKSEDTAMYYCTRDTGYYVSRYFDVWGTGTTVTVSS
VL: DIVMTQSQKFMSTSVGDRVSVTCKASQNVVTNVAWYQQKSGQSPKVVIYSASFRSSGVPDRFTGSGSGTDFTLTISNVQSEDLAEYFCHQYNSHPLTFGGGTKLEIKR
B7: Kp 2D04 (antibody, V domains shown)
VH: EVQLQQPGGELVRPGSSVKMSCKTSGYTFTFYGINWVKQRPGQGLEWIGYIYVGNGYTEYNEKFKVKATLTSDTSSSTAYMQLSGLTSEDSAIYFCARSDGYNYFDYWGQGTTLTVSS
VL: B2 VL with S12T, L27S, S30H, V74I, A82T, Q88H, R91S, Y93N, Y95P, G99A
B8: Ec F11 (antibody, V domains shown)
VH: QVQLKESGPGLVAPSQSLSITCTVSGFSLTNYAISWVRQPPGKGLEWLGIIWTGGGTLYNSALKSRPSISKDNSKSQVFLKMNSLQTDDTARYYCARAYYSNYDWYFDVWDTGTTVTVSS
VL: DIQMTQSPSSLSASLGDRVTISCSASQGISNYLNWYQQKPDGTVKLLIYYTSSLHSGVPSRFSGSGSGTDYSLTISNLEPEDIATYYCQQYSQVPYTFGGGTKLEIKR
B9: Kp 2C09 (antibody, V domains shown)
VH: B6 VH with K3M, G10D, A23I, D46E, H57Y, A61T, Y80F
VL: B6 VL with V30G, S40P, V46A, V47L, S55N, S93N, H94Y
B10: Kp 1B02 (antibody, V domains shown)
VH: B7 VH with P7S, G9A, T58S
VL: QIVLTQSPAILSASPGEKVTMTCRASSSLHYMHWYQQKTGSSPKPWIYATSNLASGVPARFSGSGSGTSYSLTISRVEAEDTATYYCQQWSSNPPTFGAGTKLELKR
B11: Kp 2E08 (antibody, V domains shown)
VH: EVQLQQPGAELAKPGASVKLSCKASGYNFTSYWMHWVKQRPGQGLEWIGLIHPNSGGTYYNEKFKSKATLTLDRSSSTAYMQLSSLTSEDSAVYYCARFEEEWGGYWYFDVWGTGTTVTVSS
VL: B3 VL with N26S, T33N, Q42E, I61V, T94S
B12: Kp 1B07 (antibody, V domains shown)
VH: EVQLQQPGAELVKPGTSVKLSCKASGYTFTSYWMHWVKQRPGQGLEWIGMIHPNSGSTNYNEMFESKASLTVDKSSSTAYMQLSSLTSEDSAVYYCARIGYSGWGQGTSVTVSS
VL: DIVMTQSPSSLSVSAGEKVTMSCKSSQSLLNGGNQKNYLAWYQQKPGQPPKVLINGASTRESGVPDRFTGNGSGTDFTLTISSVQAEDLAVYYCQNDHTYPLTFGAGTKLELKR
B13: Kp 1E04 (antibody, V domains shown)
VH: EVQLQQSGAELVKPGASVKLSCKASGYTFTSYWVHWVRQRPGQGLEWIGMIHPNSGSTNYNEKFKSKATLTVDKSSSTAYMQLSSLTSEDSAVYYCASYYYGSSYYFDYWGQGTTLTVSS
VL: B12 VL with S12T, S14T, G32S, A40T, V52L, N55Y, G56W, N71S, H98Y, T99S
B14: Kp 2B06 (antibody, V domains shown)
VH: EVQLQQPGAELVKPGASVKLSCKASGYTFTNYWMHWVKHRPGRGLEWIGRIDPNSGGTKYNEKFKNKATLTVDNPSSTGYMQLSSLTSEDSAVYYCTRSGYDYPDYWGQGTTLTVSS
VL: B5 VL with P15L, G28S, T35S, L50V, E59D, A64P, I79F, S99P
B15: Ec E7 (antibody, V domains shown)
VH: EVQLQQSGAELVKPGASVKVSCKASGYSFTNYWVHWVKQRPGQGLEWIGRIYSSDGDSNYNQKFKGKATLTVDKSSSTAYMQLSSLTSEDSAVYYCAIEGNLYFDYWGQGTTLTVSS
VL: DIVLTQSPASLAVSLGQRATISCRASQSVSTSSYSYMHWYQQKPGQPPKFLIKYASNLESGVPARFSGSGSGTDFTLNIHPVEEEDTATYYCQHSWEIPLTFGAGTKLKLKR
B16: Ec C12 (antibody, V domains shown)
VH: B8 VH with E6Q, P67L
VL: B8 VL

Experiments:
Assay in all cases: ELISA
Kp FimHLD = biological target: T1, Kp FimHLD
T1 chain: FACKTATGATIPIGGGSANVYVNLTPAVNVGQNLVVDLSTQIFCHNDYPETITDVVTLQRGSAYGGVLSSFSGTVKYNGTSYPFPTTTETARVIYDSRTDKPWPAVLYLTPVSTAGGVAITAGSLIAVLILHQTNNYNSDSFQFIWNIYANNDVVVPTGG

Ec FimHLD = biological target: Ec FimHLD
Ec FmlHLD = biological target: T2, Ec FmlHLD
T2 chain: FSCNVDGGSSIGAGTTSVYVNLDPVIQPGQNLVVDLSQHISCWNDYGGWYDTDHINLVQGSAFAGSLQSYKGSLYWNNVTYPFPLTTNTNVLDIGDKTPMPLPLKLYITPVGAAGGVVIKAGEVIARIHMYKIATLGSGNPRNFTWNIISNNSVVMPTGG

Binder | EC50 (Kp FimHLD) [µg/mL] | EC50 (Ec FimHLD) [µg/mL] | EC50 (Ec FmlHLD) [µg/mL]
B1 | 0.0141 | 0.0131 | 
B2 | 0.0144 | 0.0129 | 0.0178
B3 | 0.0081 | 0.0115 | 2.89
B4 | 0.0391 | 0.0241 | 
B5 | 0.0383 | 0.0227 | 
B6 | 0.0186 | 0.013 | 
B7 | 0.0119 | 0.0121 | 
B8 | 0.752 | 0.0273 | 
B9 | 0.0101 | 0.0129 | 
B10 | 0.0166 | 0.024 | 
B11 | 0.0149 | 0.0092 | 
B12 | 0.0148 |  | 
B13 | 0.731 |  | 
B14 | 0.0169 | 0.0092 | 
B15 |  | 0.0266 | 
B16 |  | 0.0122 | 
